# T1: human DLL3 (hDLL3) expressed on tumor cells (human, UniProt Q9NYJ7 27-618)
# T1 construct: whole, on cells; also called SHP-77 cell line; SHP-77 cells expressing hDLL3
# T1 sequence (looked up): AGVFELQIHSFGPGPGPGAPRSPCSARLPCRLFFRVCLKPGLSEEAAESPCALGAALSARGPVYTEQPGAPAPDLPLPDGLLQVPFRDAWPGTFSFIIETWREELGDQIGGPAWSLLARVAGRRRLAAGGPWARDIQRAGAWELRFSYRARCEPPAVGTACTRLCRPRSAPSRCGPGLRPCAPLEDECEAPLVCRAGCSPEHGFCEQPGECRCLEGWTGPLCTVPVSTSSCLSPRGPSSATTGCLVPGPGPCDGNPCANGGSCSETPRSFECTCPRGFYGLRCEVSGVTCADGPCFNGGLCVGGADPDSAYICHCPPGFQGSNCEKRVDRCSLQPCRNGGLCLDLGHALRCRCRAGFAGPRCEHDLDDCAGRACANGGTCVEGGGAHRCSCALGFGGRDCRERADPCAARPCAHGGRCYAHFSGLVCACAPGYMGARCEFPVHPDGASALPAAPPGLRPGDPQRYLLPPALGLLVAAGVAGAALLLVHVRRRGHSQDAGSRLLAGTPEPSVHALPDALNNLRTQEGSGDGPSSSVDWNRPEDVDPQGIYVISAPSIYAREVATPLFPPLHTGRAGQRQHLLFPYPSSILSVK
# T2: cynomolgus DLL3 (purchased from Kaixia, Cat. No. DLL-RM103) (cynomolgus, UniProt A0A2K5WSR1 27-490)
# T2 construct: Bought recombinant protein
# T2 sequence: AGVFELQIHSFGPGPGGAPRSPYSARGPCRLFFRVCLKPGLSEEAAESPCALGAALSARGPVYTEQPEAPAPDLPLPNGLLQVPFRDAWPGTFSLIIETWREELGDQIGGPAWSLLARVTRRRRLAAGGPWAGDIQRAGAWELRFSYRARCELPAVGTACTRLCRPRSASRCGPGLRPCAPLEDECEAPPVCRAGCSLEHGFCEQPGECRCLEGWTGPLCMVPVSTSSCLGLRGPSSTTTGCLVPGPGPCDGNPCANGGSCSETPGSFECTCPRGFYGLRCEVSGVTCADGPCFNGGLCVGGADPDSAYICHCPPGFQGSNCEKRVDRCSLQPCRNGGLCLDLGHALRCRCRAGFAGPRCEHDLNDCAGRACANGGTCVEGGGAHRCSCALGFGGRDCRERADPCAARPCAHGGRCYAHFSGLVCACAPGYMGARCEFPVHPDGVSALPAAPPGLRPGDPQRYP
# T3: human DLL3 (purchased from Kaixia, Cat. No DLL-HM103) (human, UniProt Q9NYJ7 27-492, limits assumed)
# T3 construct: Bought recombinant protein; also called human DLL3 protein
# T3 sequence (looked up): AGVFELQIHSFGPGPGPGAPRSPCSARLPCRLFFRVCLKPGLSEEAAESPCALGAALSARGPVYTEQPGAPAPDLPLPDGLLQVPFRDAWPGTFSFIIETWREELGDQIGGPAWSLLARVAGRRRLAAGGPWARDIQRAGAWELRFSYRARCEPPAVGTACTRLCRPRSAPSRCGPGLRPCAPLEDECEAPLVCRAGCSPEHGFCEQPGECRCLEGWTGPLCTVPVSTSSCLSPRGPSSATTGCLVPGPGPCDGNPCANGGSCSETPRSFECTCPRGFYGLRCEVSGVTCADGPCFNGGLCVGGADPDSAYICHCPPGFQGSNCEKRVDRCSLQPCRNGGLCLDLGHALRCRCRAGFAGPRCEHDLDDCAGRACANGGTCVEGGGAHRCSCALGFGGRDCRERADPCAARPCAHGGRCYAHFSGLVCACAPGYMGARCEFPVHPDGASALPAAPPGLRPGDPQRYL
# T4: cynomolgus CD3 (purchased from Acro, Cat. No. CDD-C52W4) (cynomolgus, UniProt Q95LI5 22-117)
# T4 sequence (looked up): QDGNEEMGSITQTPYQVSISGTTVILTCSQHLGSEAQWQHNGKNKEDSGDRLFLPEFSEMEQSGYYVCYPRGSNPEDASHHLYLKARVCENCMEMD
# Tests used:
# [1] = molecular target: T1, human DLL3 (hDLL3) expressed on tumor …; experiment: flow cytometry (FACS) on SHP-77 cells expressing hDLL3
# [2] = molecular target: T1, human DLL3 (hDLL3) expressed on tumor …; experiment: cell-based or functional assay
# [3] = molecular target: T5, human CD3 (hCD3) naturally expressed on Jurkat cells (human, UniProt P07766 23-207); experiment: flow cytometry (FACS) on Jurkat cells naturally expressing hCD3
# T5 construct: whole, on cells; on the cells it is part of the whole TCR/CD3 complex; also called Jurkat cell line
# T5 sequence (P07766 23-207): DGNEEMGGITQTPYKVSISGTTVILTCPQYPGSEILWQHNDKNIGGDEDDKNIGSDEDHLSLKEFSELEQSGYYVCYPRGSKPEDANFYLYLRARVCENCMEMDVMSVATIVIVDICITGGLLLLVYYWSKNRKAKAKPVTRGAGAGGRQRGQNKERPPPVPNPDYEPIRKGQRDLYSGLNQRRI
# [4] = molecular target: T2, cynomolgus DLL3 (purchased from Kaixia, …); experiment: SPR (Biacore 8K), bispecific captured by anti-human Fc on CM5, DLL3 as analyte, 1:1 Langmuir fit
# [5] = molecular target: T3, human DLL3 (purchased from Kaixia, Cat. …); experiment: as above
# [6] = molecular target: T4, cynomolgus CD3 (purchased from Acro, …); experiment: SPR (Biacore 8K), CD3 immobilised directly on CM5, bispecific as analyte, 1:1 Langmuir fit
# [7] = molecular target: human CD3 (purchased from Acro, Cat. No. CDD-H52W1) (human, UniProt P07766 23-126); experiment: as above
# Chain of human CD3 (purchased from Acro, Cat. No. CDD-H52W1) (P07766 23-126): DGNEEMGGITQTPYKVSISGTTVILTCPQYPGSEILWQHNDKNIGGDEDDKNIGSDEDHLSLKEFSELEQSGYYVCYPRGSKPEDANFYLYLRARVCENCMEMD
binder,measurement,setting,value
"Bispecific antibody 2 (bispecific antibody, IgG1, Knob heavy chain: DLL3 VH-CH1-(G4S)3-CD3 scFv-EPKSS-IgG1 Fc (S354C, T366W, L234A/L235A); Hole chain: Fc only (Y349C, T366S, L368A, Y407V, H435R); Light chain: that of H2-39E2D11-NA; also called anti-CD3-DLL3 bispecific antibody) heavy: not shown DKTHTCPPCPAPEAAGGPSVFLFPPKPKDTLMISRTPEVTCVVVDVSHEDPEVKFNWYVDGVEVHNAKTKPREEQYNSTYRVVSVLTVLHQDWLNGKEYKCKVSNKALPAPIEKTISKAKGQPREPQVCTLPPSRDELTKNQVSLSCAVKGFYPSDIAVEWESNGQPENNYKTTPPVLDSDGSFFLVSKLTVDKSRWQQGNVFSCSVMHEALHNRYTQKSLSLSPGK light: EIVLTQSPATLSLSPGERATLSCRASQSINNNLHWYQQKPGQAPRLLIKYVSQSISGIPARFSGSGSGTDFTLTISSLEPEDFAVYYCQQTNAWPLTFGGGTKLEIKRTVAAPSVFIFPPSDEQLKSGTASVVCLLNNFYPREAKVQWKVDNALQSGNSQESVTEQDSKDSTYSLSSTLTLSKADYEKHKVYACEVTHQGLSSPVTKSFNRGEC",EC50,[1],3.11 nM
same,"TDCC EC50 (nM), NCI-H82 cell line",[2],80.2 nM
same,"TDCC EC50 (nM), SHP-77 cell line",[2],136 nM
same,EC50,[3],57.9 nM
same,Kd,[4],0.887 nM
same,koff,[4],8.6e-05 s⁻¹
same,kon,[4],97000 M⁻¹ s⁻¹
same,Kd,[5],0.647 nM
same,koff,[5],7.92e-05 s⁻¹
same,kon,[5],122000 M⁻¹ s⁻¹
same,Kd,[6],11.1 nM
same,koff,[6],0.00405 s⁻¹
same,Kd,[7],9.09 nM
same,koff,[7],0.00414 s⁻¹
